One molecule from paper PMC12251660, “The Structural Deciphering of the α3 Helix Within ZmHsfA2’S DNA-Binding Domain for the Recognition of Heat Shock Elements in Maize” can be followed below.

Targets include ZmHsf17-R105A (Zea mays, UniProt A0A5J6CYG6 1-373, R105A); ZmHsf17-T109A (Zea mays, UniProt A0A5J6CYG6 1-373, T109A); ZmHsf17-K142A (Zea mays, UniProt A0A5J6CYG6 1-373, K142A).
Assay in all cases: EMSA; EMSA/Gel-Shift buffer (Beyotime GS009; composition, salt and pH not stated), 10 uL, 25 C 30 min; 6% native PAGE in 0.5x TBE at 4 C
Common to all, as to conditions: protein: recombinant; tags: 6xHis (stated C-terminal; pET-30a); chain copies: 3; label: biotin; blunt
(In general: In EMSA bound probe runs differently from free probe, usually more slowly.)

Sequence of ZmHsf17-T109A (A0A5J6CYG6 entry or part of it T109A | T109A T109A): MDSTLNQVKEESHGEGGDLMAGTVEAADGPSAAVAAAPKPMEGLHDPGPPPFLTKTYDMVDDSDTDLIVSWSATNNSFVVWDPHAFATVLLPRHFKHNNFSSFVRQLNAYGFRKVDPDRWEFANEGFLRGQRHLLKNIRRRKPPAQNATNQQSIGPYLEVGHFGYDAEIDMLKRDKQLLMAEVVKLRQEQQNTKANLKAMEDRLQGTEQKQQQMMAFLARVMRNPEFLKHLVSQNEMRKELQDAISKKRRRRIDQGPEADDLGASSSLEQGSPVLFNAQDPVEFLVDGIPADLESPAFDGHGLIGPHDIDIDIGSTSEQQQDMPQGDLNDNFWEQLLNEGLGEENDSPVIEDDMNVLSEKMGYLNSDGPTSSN
Sequence of ZmHsf17-K142A (A0A5J6CYG6 entry or part of it K142A | K142A K142A): as the sequence (A0A5J6CYG6 entry or part of it T109A | T109A T109A) above, with A109T, K142A counted along it
Sequence of ZmHsf17-R105A (A0A5J6CYG6 entry or part of it R105A | R105A R105A): as the sequence (A0A5J6CYG6 entry or part of it T109A | T109A T109A) above, with R105A, A109T counted along it

B1: ZmPAH1-HSE2 (dsDNA)
DNA 1: CAGCGTCACATGACGGGAATTTTCACGTCTTTTCAGCCCT
DNA 2: AGGGCTGAAAAGACGTGAAAATTCCCGTCATGTGACGCTG
For the molecule B1, the figures for the binding result with ZmHsf17-R105A, with ZmHsf17-T109A and with ZmHsf17-K142A were “no binding”, “binds” and “binds”, respectively.
